Molecular target: leptin receptor (OBR-2K), fused to luciferase (OBR-2K Rluc) or to YFP (OBR-2K YFP) (UniProt P48357)
Experiment: FRET or BRET; HEK293T cells co-transfected with OBR-2K Rluc (donor) and OBR-2K YFP (acceptor); pre-treated with homocysteine (1-10 mM) for 4 h, then leptin (10 nM) for 30 min; coelenterazine h 20 uM; result in mBRET units

fold increase in BRET signal upon leptin stimulation: 3 fold
Substance: leptin receptor (OBR-2K), fused to luciferase (OBR-2K Rluc) or to YFP (OBR-2K YFP) (from UniProt P48357 22-1165)

Reference: PMC9746958
